From patent US20230025039

Assays:
[1] = tested on: Cas13b-t3-REPAIR R and H to A in both HEPN domains (numbering not given) (Planctomycetes bacterium isolate B28_G16); assay: cell_activity; conditions: non-targeting control
[2] = tested on: Cas13b-t1-REPAIR R and H to A in both HEPN domains (numbering not given) (Atlantic deep subsurface metagenome); assay: cell_activity; conditions: non-targeting control

Substance	activity (normalized RLU) [1]	activity (normalized RLU) [2]
non-targeting editing gRNA (b-t3) ; Cypridina luciferase W85X mRNA	0.00368	–
non-targeting editing gRNA (b-t1) ; Cypridina luciferase W85X mRNA	–	0.00795
